Measured values taken from paper PMC12752688.

How the values were obtained:
[1] = target: ribosome-nascent chain complex (not stated | E. coli) (UniProt P0ADZ0); assay: high-speed AFM (HS-AFM); RNC (2 nM) on mica, TF (1 uM) in the imaging solution, physiological buffer; 1 frame/s, 22-25 °C; dwell time analysis of single binding events
Trigger Factor = Trigger Factor (UniProt P0A850); assay: high-speed AFM (HS-AFM); TF alone at 5 uM on mica; projected area and height compared with monomers
[2] = target: native 70S ribosome from E. coli (E. coli) (UniProt P0ADZ0); assay: high-speed AFM (HS-AFM); 70S ribosomes without nascent chain partially immobilised on mica, TF in the imaging solution at a molar ratio of 200:1 TF:ribosome; 1 frame/s, 22-25 °C
[3] = target: Trigger factor (Escherichia coli) (UniProt P0A850); details: cited from earlier work

Trigger Factor (from UniProt P0A850 1-432) (natural protein), sequence (P0A850 whole entry): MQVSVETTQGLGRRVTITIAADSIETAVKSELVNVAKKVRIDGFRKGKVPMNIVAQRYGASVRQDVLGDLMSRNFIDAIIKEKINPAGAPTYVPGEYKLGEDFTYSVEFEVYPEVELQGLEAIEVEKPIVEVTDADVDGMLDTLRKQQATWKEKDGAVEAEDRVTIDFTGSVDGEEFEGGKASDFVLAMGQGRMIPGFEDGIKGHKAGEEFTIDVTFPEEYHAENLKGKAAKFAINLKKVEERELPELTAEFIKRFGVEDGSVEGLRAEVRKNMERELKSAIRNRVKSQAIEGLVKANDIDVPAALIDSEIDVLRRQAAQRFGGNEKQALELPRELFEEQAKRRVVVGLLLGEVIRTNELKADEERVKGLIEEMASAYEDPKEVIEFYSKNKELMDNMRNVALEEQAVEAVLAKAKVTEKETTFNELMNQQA
Trigger factor, sequence (P0A850 whole entry): as above

Substance | duration of association [1] | duration of individual binding events [1] | longest interaction time (exit-tunnel site) [1] | longest interaction time (peripheral site) [1] | mean interaction time (exit-tunnel site) [1] | mean interaction time (peripheral site) [1] | stoichiometry N [1] | stoichiometry N (Trigger Factor) | duration of association [2] | Kd [3]
Trigger Factor (from UniProt P0A850 1-432) (natural protein) | > 5 s | > 30 s | < 80 s | > 30 s | 8 s | 3.9 s | 2 | 2 | < 5 s | –
Trigger factor (from UniProt P0A850) | – | – | – | – | – | – | – | – | – | 1500 nM
